According to patent publication US20120244577A1 (Zymeworks, published 2012):

Target: the molecule itself
Experiment: co-expression in CHO-3E7, gel analysis (FIG. 6)
Description: High level and high-throughput recombinant protein production by transient transfection of suspension-growing […] CHO-3E7 was performed. See Table 3 for construct boundaries of the two scaffolds described here: Albumin based heteromultimer 1 (ABH1) and Albumin based heteromultimer 2 (ABH2). Albumin based heteromultimer 2 comprises one disulfide bond between the two transporter polypeptides, while Albumin based heteromultimer 1 is formed entirely by non-covalent interactions. FIG. 6A provides SDS-PAGE (non-reducing) gel analysis of the two heteromultimer constructs (ABH1 and ABH2), after co-expression (different DNA transfection ratios are shown). WT full-length HSA is shown as control. As expected, ABH2 retains the disulfide linkage in non-reducing SDS-PAGE, with a MW roughly double the non-disulfide linked ABH1. FIG. 6B provides Native gel analysis of the two Albumin based heteromultimer constructs (ABH1 and ABH2), after co-expression (1:1 DNA level). WT full-length HSA is shown as control. […]
WT-HSA and the two Albumin based heteromultimers (ABH1 and ABH2) were expressed in CHO-3E7 cell line grown in suspension in FreeStyle F17 medium (Invitrogen) supplemented with 0.1% w/v pluronic and 4 mM glutamine. […] At 24-48 hours, GFP positive cells should be between 30-60% as determined by flow cytometry.

B1: Albumin based Transporter polypeptide 1-Ver 2 (other)
chain: DAHKSEVAHRFKDLGEENFKALVLIAFAQYLQQCPFEDHVKLVNEVTEFAKTCVADESAENCDKSLHTLFGDKLCTVATLRETYGEMADCCAKQEPERNECFLQHKDDNPNLPRLVRPEVDVMCTAFHDNEETFLKKYLYEIARRHPYFYAPELLFFAKRYKAAFTECCQAADKAACLLPKLDELRDEGKASSAKQRLKCASLQKFGERAFKAWAVARLSQRFPKAEFAEVSKLVTDLTKVHTECCHGDLLECADDRADLAKYICENQDSISSKLKECCEKPLLEKSHCIAEVENDEMPADLPSLAADFVESKDVCKNYAEAKDVFLGMFLYEYARA
notes: First chain of ABH2; also called F1; ABH2 segment 1:337
B1: no binding.

B2: Albumin based Transporter polypeptide 1-Ver 1 (other)
chain: DAHKSEVAHRFKDLGEENFKALVLIAFAQYLQQCPFEDHVKLVNEVTEFAKTCVADESAENCDKSLHTLFGDKLCTVATLRETYGEMADCCAKQEPERNECFLQHKDDNPNLPRLVRPEVDVMCTAFHDNEETFLKKYLYEIARRHPYFYAPELLFFAKRYKAAFTECCQAADKAACLLPKLDELRDEGKASSAKQRLKCASLQKFGERAFKAWAVARLSQRFPKAEFAEVSKLVTDLTKVHTECCHGDLLECADDRADLAKYICENQDSISSKLKECCEKPLLEKSHCIAEV
notes: also called ABH1 segment 1:293
B2: no binding.
